The text below walks through data of paper PMC4906023.

This test concerns the target His6-GyrB subunit of M. tuberculosis DNA gyrase (M. tuberculosis H37Rv) (UniProt P9WG45). As to the kind of experiment: SPR; BIAcore T200; […], association 180 s, dissociation 600 s; HBS-N. (In SPR one partner is held on a chip, and binding of the other changes the refractive index at the surface.)

B1: MParE2 without the His6-tag (natural protein)
chain: MTRRLRVHNGVEDDLFEAFSYYADAAPDQIDRLYNLFVDAVTKRIPQAPNAFAPLFKHYRHIYLRPFRYYVAYRTTDEAIDILAVRHGMENPNAVEAEISGRTFE
The Kd is a measure of binding affinity in units of concentration. B1: the Kd stood at 4.75 µM.
